Measurements taken from patent publication US20130260458A1, “METHOD OF INDUCING DIFFERENTIATION OF HUMAN PLURIPOTENT STEM CELL INTO HEPATIC PROGENITOR CELL” (NATIONAL UNIVERSITY CORPORATION CHIBA UNIVERSITY, priority 2012, published 2013).
Entries after “also recorded” stand apart in the source; their conditions may differ.

B1: oncostatin M (protein, UniProt P13725 26-221, looked up)
Oncostatin-M: AAIGSCSKEYRVLLGQLQKQTDLMQDTSRLLDPYIRIQGLDVPKLREHCRERPGAFPSEETLRGLGRRGFLQTLNATLGCVLHRLADLEQRLPKAQDLERSGLNIEDLEKLQMARPNILGLRNNIYCMAQLLDNSDTAEPTKAGRGASQPPTPTPASDAFQRKLEGCRFLHGYHRFMHSVGRVFSKWGESPNRSRR
notes: growth factor used as growth-promoting agent (Wako Pure Chemical Industries)
B2: epidermal growth factor (protein, UniProt P01133 23-1207, looked up)
Pro-epidermal growth factor: PQHWSCPEGTLAGNGNSTCVGPAPFLIFSHGNSIFRIDTEGTNYEQLVVDAGVSVIMDFHYNEKRIYWVDLERQLLQRVFLNGSRQERVCNIEKNVSGMAINWINEEVIWSNQQEGIITVTDMKGNNSHILLSALKYPANVAVDPVERFIFWSSEVAGSLYRADLDGVGVKALLETSEKITAVSLDVLDKRLFWIQYNREGSNSLICSCDYDGGSVHISKHPTQHNLFAMSLFGDRIFYSTWKMKTIWIANKHTGKDMVRINLHSSFVPLGELKVVHPLAQPKAEDDTWEPEQKLCKLRKGNCSSTVCGQDLQSHLCMCAEGYALSRDRKYCEDVNECAFWNHGCTLGCKNTPGSYYCTCPVGFVLLPDGKRCHQLVSCPRNVSECSHDCVLTSEGPLCFCPEGSVLERDGKTCSGCSSPDNGGCSQLCVPLSPVSWECDCFPGYDLQLDEKSCAASGPQPFLLFANSQDIRHMHFDGTDYGTLLSQQMGMVYALDHDPVENKIYFAHTALKWIERANMDGSQRERLIEEGVDVPEGLAVDWIGRRFYWTDRGKSLIGRSDLNGKRSKIITKENISQPRGIAVHPMAKRLFWTDTGINPRIESSSLQGLGRLVIASSDLIWPSGITIDFLTDKLYWCDAKQSVIEMANLDGSKRRRLTQNDVGHPFAVAVFEDYVWFSDWAMPSVMRVNKRTGKDRVRLQGSMLKPSSLVVVHPLAKPGADPCLYQNGGCEHICKKRLGTAWCSCREGFMKASDGKTCLALDGHQLLAGGEVDLKNQVTPLDILSKTRVSEDNITESQHMLVAEIMVSDQDDCAPVGCSMYARCISEGEDATCQCLKGFAGDGKLCSDIDECEMGVPVCPPASSKCINTEGGYVCRCSEGYQGDGIHCLDIDECQLGEHSCGENASCTNTEGGYTCMCAGRLSEPGLICPDSTPPPHLREDDHHYSVRNSDSECPLSHDGYCLHDGVCMYIEALDKYACNCVVGYIGERCQYRDLKWWELRHAGHGQQQKVIVVAVCVVVLVMLLLLSLWGAHYYRTQKLLSKNPKNPYEESSRDVRSRRPADTEDGMSSCPQPWFVVIKEHQDLKNGGQPVAGEDGQAADGSMQPTSWRQEPQLCGMGTEQGCWIPVSSDKGSCPQVMERSFHMPSYGTQTLEGGVEKPHSLLSANPLWQQRALDPPHQMELTQ
modifications: Pro-epidermal growth factor
notes: as for B1

What was measured:
Human iPS cells (201B7) [1] = assay: Expression of transcription factors in iPS cells cultured with single growth-promoting agents (RT-PCR, electrophoresis); format: cell-based; settings: iPS cells in iPSm(−) medium with the growth-promoting agent added; PCR and electrophoresis, FIG. 2
Experimental: Reverse transcriptase (Life Technologies Japan Ltd.) was used to synthesize cDNAs of iPS cells, fetal hepatic cells and adult hepatic cells from 3 μg of RNA. The cDNAs were subjected to polymerase chain reaction (PCR) using the following primers to GATA4, FOXA2, HEX, C/EBPα and C/EBPβ, respectively, and to electrophoresis using 2% low-melting agarose (Lonza) and 1×TAE, for investigations on the expression of GATA4, FOXA2, HEX, C/EBPα and C/EBNβ in the iPS cells, fetal hepatic cells and adult hepatic cells.
After electrophoresis, the 2% low-melting agarose was irradiated with ultraviolet rays at 254 nm from a UV transilluminator (UVP LLC, NLMS-20E), and a Polaroid photograph (FUJIFILM Corporation, FP-3000B) thereof was taken with a gel camera (Funakoshi DS-300) to analyze an electrophoretic pattern.
PCR cycles performed included 30 cycles of thermal denaturation: 1 minute at 94° C.; annealing: 1 minute and elongation reaction: 1 minute at 72° C.
Human iPS cells (201B7, RIKEN cell bank) were seeded onto a matrigel-coated 6-well plate, and cultured in a feeder-less medium, ReproFF (trade name, Reprocell Inc.) for culture of stem cells maintained in an undifferentiated state, without using a feeder cell, under conventional conditions: 37° C. and 5% carbon dioxide.
A medium obtained by adding a 20% knock-out serum replacement (Life Technologies Japan Ltd.), 10% Minimum Essential Amino Acids (Life Technologies Japan Ltd.), 2 mM of L-glutamine (Life Technologies Japan Ltd.) and 1 mM of 2-mercaptoethanol to a D-MEM/F12 medium (Dulbecco's Modified Eagle Medium-F12 medium, Sigma-Aldrich Japan) was used as an iPSm(−) medium.
The following growth-promoting agents were added to the iPSm(−) medium, and SOX-17, GATA6, FOXA2, GATA4, HEX, TTR and C/EBPα were expressed in a manner similar to that in Experiment 1.
As the growth-promoting agents, added were bFGF (basic fibroblast growth factor, Wako Pure Chemical Industries, Ltd.), BMP (bone morphogenetic protein)-4 (Wako Pure Chemical Industries, Ltd.), oncostatinM (Wako Pure Chemical Industries, Ltd.), an epidermal growth factor (EGF, Wako Pure Chemical Industries, Ltd.), a nerve growth factor (NGF, R & D Systems, Inc.), TGF-β, (transform growth factor-β, R& D Systems, Inc.), retinoic acid (Sigma-Aldrich Japan) and a hepatic cell growth factor (HGF, Sigma-Aldrich Japan).
RT-PCR to SOX-17, GATA6 and TTR was performed under the following conditions.

Human iPS cells (201B7) [2] = assay: Induction of differentiation into hepatic progenitor cells by growth-promoting agents (real-time quantitative PCR of AFP and DLK-1); format: cell-based; settings: iPS cells transfected with FOXA2, GATA4, HEX, C/EBPα three times every three days, 8th day, n=3, ± standard error, ReproFF lane = 100
Experimental: Human iPS cells (201B7, RIKEN cell bank) were seeded onto a matrigel-coated 6-well plate, and cultured in a medium, ReproFF in accordance with a conventional method under the following conditions: 37° C. and 5% carbon dioxide. A lipofection reagent, Lipofectamine LTX (registered trade mark, Life Technologies Japan Ltd.) was used to transfect 0.5 μg of expression plasmids of FOXA2, GATA4, HEX and C/EBPα, respectively. […]
The transfection of the transcription factors was repeated three times every three days, and, on the 8th day, RNA was extracted using Isogen (NIPPON GENE CO., LTD.). […] Then, the amount of expressed α-fetoprotein (AFP), which was an indicator of hepatic progenitor cells, was analyzed by the real-time quantitative PCR method using a real-time PCR analysis reagent, Fast SYBR Green Master Mix (trade name, Life Technologies Japan Ltd.). […] The amounts of α-fetoprotein (AFP) and Delta-like (DLK)-1 expressed were quantitatively determined as an indicator of hepatic progenitor cells by employing ribosome-related protein (RLP19) as internal standard (each group, n=3).
The real-time quantitative PCR was performed by using the following primers through a PCR cycle including 30 cycles of 5 seconds at 95° C. and 20 seconds at 60° C.

Molecule	expression of C/EBPα (Human iPS cells (201B7) [1])	expression of FOXA2 (Human iPS cells (201B7) [1])	expression of GATA4 (Human iPS cells (201B7) [1])	expression of HEX (Human iPS cells (201B7) [1])	expression of SOX-17 (Human iPS cells (201B7) [1])	expression of GATA6 (Human iPS cells (201B7) [1])	α-fetoprotein/RPL19 ratio (mRNA expression) (Human iPS cells (201B7) [2]; FIG. 3-1)	DLK-1/RPL19 ratio (mRNA expression) (Human iPS cells (201B7) [2]; FIG. 3-2)
B1	slightly expressed; also recorded: not observed to be expressed	not observed to be expressed	not observed to be expressed	not observed to be expressed	observed to be expressed	–	–	–
B2	not observed to be expressed	not observed to be expressed	not observed to be expressed	not observed to be expressed	–	observed to be expressed	139±13	59±7
